Measured values from patent US20190144884A1 (University of Pennsylvania, published 2019).

Biological target: the molecule itself
Experiment: native gel, in-gel butyrylcholinesterase activity staining of mouse serum (self-association: dimer, tetramer)

B1: human butyrylcholinesterase (hBChE) expressed from AAV8.UbC.hIL2.BChE C1.IRES.PRIMA1.SV40 vector (enzyme)
chain: HTEDDIIIATKNGKVRGMNLTVFGGTVTAFLGIPYAQPPLGRLRFKKPQSLTKWSDIWNATKYANSCCQNIDQSFPGFHGSEMWNPNTDLSEDCLYLNVWIPAPKPKNATVLIWIYGGGFQTGTSSLHVYDGKFLARVERVIVVSMNYRVGALGFLALPGNPEAPGNMGLFDQQLALQWVQKNIAAFGGNPKSVTLFGESAGAASVSLHLLSPGSHSLFTRAILQSGSFNAPWAVTSLYEARNRTLNLAKLTGCSRENETEIIKCLRNKDPQEILLNEAFVVPYGTPLSVNFGPTVDGDFLTDMPDILLELGQFKKTQILVGVNKDEGTAFLVYGAPGFSKDNNSIITRKEFQEGLKIFFPGVSEFGKESILFHYTDWVDDQRPENYREALGDVVGDYNFICPALEFTKKFSEWGNNAFFYYFEHRSSKLPWPEWMGVMHGYEIEFVFGLPLERRDNYTKAEEILSRSIVKRWANFAKYGNPNETQNNSTSWPVFKSTEQKYLTLNTESTRIMTKLRAQQCRFWTSFFPKVLEMTGNIDEAEWEWKAGFHRWNNYMMDWKNQFNDYTSKKESCVGL
notes: Secreted into the serum of vector-injected RAG KO mice; also called hBuChE; Hu BChE
B1: binds.
